Residue numbers refer to the chain shown, from its start. Numbers in names are those of the source. Entries after “also recorded” stand apart in the source; their conditions may differ.
Key:
human UGTs = experiment: Recombinant human UGT screen: glucuronidation rates across human UGTs; format: biochemical; conditions: 10 μM aglycone; for Selectivity among human UGTs: other UGTs at very low rates
Description: (§1) Recombinant human UGTs 1A1, 1A3, 1A6, 1A7, 1A8, 1A9, 1A10, 2A1, 2A2, 2A3, 2B4, 2B10, 2B7, and 2B17 were produced, as His-tagged proteins, in baculovirus-infected insect cells as previously described.[37]−[39] The relative expression level of each of these recombinant UGTs was evaluated by immunodetection, using monoclonal antibody against the His-tag, as described elsewhere.[40] A numeric value of 1.0 was given to the expression level of UGT1A8 and the relative expression level of each of the other UGTs was related to this value. Normalized activities were obtained by dividing the glucuronidation rate values by the relative expression level of the tested UGT. In addition, UGTs 1A4, 2B10, and 2B15 were purchased from Corning Life Sciences (New York) and are marked, in Figure 5, with a “C” to indicate that they are commercial enzymes. The expression levels of the UGTs in the commercial samples could not be determined, so their protein concentration was used to calculate the reaction rate.
(§2) The incubation mixtures for glucuronidation assays contained 100 mM Tris-HCl buffer pH 7.4, 2.5 mM MgCl2, 0.5 mM UDPGA, recombinant UGT, or microsomes as the enzyme source and 0–15 μM of the test aglycone substrate. When the incubation mixtures contained microsomes, alamethicin was used at a final concentration of 12.5 μg/mL, but it was not included in the recombinant enzyme assays.[43] In the first experiments three negative control samples were tested, namely (i) without the substrate 7-hydroxycoumarin derivative, (ii) without the cofactor UDPGA, or (iii) without the enzyme source. In subsequent experiments, the control samples lacked the enzyme source since it gave the highest fluorescence background. Preliminary experiments were done under different conditions than most of the later assays, namely in 2.5 mL of 100 mM phosphate buffer pH 7.4, containing 500 μg pig liver microsomes, 1.0 μM compound 6 and 0.5 mM UDPGA, at room temperature. Fluorescence spectra (excitation 200–420 nm; emission 400–600 nm) or fluorescence decrease at 390 nm excitation and 460 nm emission, were measured in these preliminary experiments, using a Shimadzu RF-5000 spectrophotofluorometer.
(§3) Most of the glucuronidation assays were carried out in 96 multiwell plate format, and incubations were carried out in 100 μL and at 37 °C, in the presence of Tris–HCl buffer pH 7.4, UDPGA, and the tested 7-hydroxycoumarin derivative, at the indicated concentrations. Fluorescence decline in the multiwell plate experiments was monitored every other minute, for 40 min, using an excitation filter at 405 nm and detection at 460 nm, in a Victor2 1420 Multilabel counter (PerkinElmer, Life Sciences, Turku, Finland). The fluorescence values were transformed into molarity using the aglycone substrates for making the respective standard curves. Slopes of the substrate concentration decrease per minute were calculated using linear regression analysis, in which the linear part of the kinetic assay indicated the glucuronidation rate. Enzyme catalyzed glucuronidation rate was calculated by subtracting the blank value from the full reaction value. The intra-assay variability of the kinetic assays was 6% when compound 6 was used as the aglycone substrate. Kinetic analyses were also performed in the same 96 multiwell plates format, with excitation filter at 405 nm and detection at 460 nm, using 6–8 different substrate concentrations per substrate and two different protein concentrations for both the wild-type and mutant UGT1A10. The higher concentrations, 13.5 mg/L for UGT1A10 and 12.0 mg/L for the UGT1A10 mutant, were used when the substrates were HFC, compounds 4 and 6, whereas the lower protein concentrations, 6.75 and 6.0 mg/L for UGT1A10 and the mutant, respectively, were used when the substrates were compounds 1, 2, 3, and 5.

[1] = system: human intestinal microsomes (HIM); experiment: Glucuronidation by human intestinal microsomes (HIM); format: in vitro ADME; conditions: 10 μM aglycone
Description: (§4) A commercial HLM pool (cat no:452210, BD Gentest, Bedford, MA) and human intestine microsomes (HIM) pool (lot. no 1110189, XenoTech, Kansas City, KS) were purchased. Pig liver samples were prepared from untreated female pigs that were used for practicing surgical procedures at the University of Kuopio (currently: University of Eastern Finland, Kuopio campus). Other animal liver microsomes were prepared as described previously.[41] The Ethics Committee for Animal Experiments, University of Kuopio, approved these experiments.
as §2, §3

[2] = system: human liver microsomes (HLM); experiment: Glucuronidation by human liver microsomes (HLM); format: in vitro ADME; conditions: 10 μM aglycone
Description: as §4, §2, §3

[3] = Absorbance spectra of coumarin derivatives; format: physicochemical; conditions: 10 μM, 100 mM Tris–HCl pH 7.4, 10% dimethyl sulfoxide
Description: (§5) The absorbance spectra of 10 μM coumarin derivatives at 100 mM Tris–HCl pH 7.4 containing 10% dimethyl sulfoxide were measured using a Hitachi U-2000 Spectrophotometer (Tokyo, Japan). Excitation and emission fluorescence spectra of 0.1 μM coumarin derivatives in 100 mM Tris-HCl pH 7.4 were measured using a Shimadzu RF-5000 spectrophotofluorometer (Tokyo, Japan). The excitation spectra was from 200 to 420 at 460 nm emission and the emission spectra was from 400 to 600 at 390 nm excitation (data in Supplementary Table S1 and Figures S1 and S2). The effect of pH on fluorescence intensity was determined at 405 nm excitation and 460 nm emission, in the presence of 1.5% trichloroacetic acid, 100 mM phosphate buffers at pH 5, 6, 7, 8, and 9, or 1.6 M glycine–NaOH pH 10.4.

[4] = Excitation and emission fluorescence spectra of coumarin derivatives; format: physicochemical; parameters: dose or concentration left out as unconfirmed
Description: as §5, with “Excitation and emission fluorescence spectra of 0.1 μM coumarin derivatives in 100 mM Tris-HCl pH 7.4 were measured using a Shimadzu RF-5000 spectrophotofluorometer (Tokyo, Japan).” left out

[5] = substrate: CN(C)c1ccc(-c2cc3ccc(O)cc3oc2=O)cc1; experiment: Glucuronidation kinetics by recombinant wild-type UGT1A10 (fluorescence decrease, 96-well plate); format: biochemical, human; conditions: other: UGT1A10 wild-type, 7-hydroxyl glucuronidation, Michaelis–Menten, one experiment; pH 7.4; 37.0 °C
Description: as §1, §2, §3

[6] = substrate: COc1ccc(-c2cc3ccc(O)cc3oc2=O)cc1; experiment: as above; format: biochemical, human; conditions: other: UGT1A10 wild-type, 7-hydroxyl glucuronidation, Michaelis–Menten, one experiment; pH 7.4; 37.0 °C
Description: as §1, §2, §3

[7] = substrate: Cc1ccc(-c2cc3ccc(O)cc3oc2=O)cc1; experiment: as above; format: biochemical, human; conditions: other: UGT1A10 wild-type, 7-hydroxyl glucuronidation, Michaelis–Menten, one experiment; pH 7.4; 37.0 °C
Description: as §1, §2, §3

[8] = substrate: O=c1cc(C(F)(F)F)c2ccc(O)cc2o1; experiment: as above; format: biochemical, human; conditions: other: UGT1A10 wild-type, 7-hydroxyl glucuronidation, Michaelis–Menten, one experiment; pH 7.4; 37.0 °C
Description: as §1, §2, §3

[9] = substrate: O=c1oc2cc(O)ccc2cc1-c1ccc(F)cc1; experiment: as above; format: biochemical, human; conditions: other: UGT1A10 wild-type, 7-hydroxyl glucuronidation, Michaelis–Menten, one experiment; pH 7.4; 37.0 °C
Description: as §1, §2, §3

[10] = substrate: O=c1oc2cc(O)ccc2cc1-c1ccc(O)cc1; experiment: as above; format: biochemical, human; conditions: other: UGT1A10 wild-type, 7-hydroxyl glucuronidation, Michaelis–Menten, one experiment; pH 7.4; 37.0 °C
Description: as §1, §2, §3

[11] = substrate: O=c1oc2cc(O)ccc2cc1-n1cncn1; experiment: as above; format: biochemical, human; conditions: other: UGT1A10 wild-type, 7-hydroxyl glucuronidation, Michaelis–Menten, one experiment; pH 7.4; 37.0 °C
Description: as §1, §2, §3

[12] = substrate: CN(C)c1ccc(-c2cc3ccc(O)cc3oc2=O)cc1; experiment: Glucuronidation kinetics by UGT1A10 mutant 1A10-H210M (fluorescence decrease, 96-well plate); format: biochemical, human; conditions: other: UGT1A10mutant (H210M), 7-hydroxyl glucuronidation, one experiment; pH 7.4; 37.0 °C
Description: (§6) The UGT1A10 mutant 1A10-H210 M was prepared according to the QuikChange methodology, using the cloned UGT1A10 in pFastBac[42] as a template and the following two oligonucleotides:
(§7) The entire coding sequence of UGT1A10 in the mutant clone was sequenced, and subsequently, recombinant baculovirus was prepared and used to express the mutant enzyme in baculovirus-infected SF9 insect cells.
as §2, §3

[13] = substrate: COc1ccc(-c2cc3ccc(O)cc3oc2=O)cc1; experiment: as above; format: biochemical, human; conditions: other: UGT1A10mutant (H210M), 7-hydroxyl glucuronidation, one experiment; pH 7.4; 37.0 °C
Description: as §6, §7, §2, §3

[14] = substrate: Cc1ccc(-c2cc3ccc(O)cc3oc2=O)cc1; experiment: as above; format: biochemical, human; conditions: other: UGT1A10mutant (H210M), 7-hydroxyl glucuronidation, one experiment; pH 7.4; 37.0 °C
Description: as §6, §7, §2, §3

[15] = substrate: O=c1cc(C(F)(F)F)c2ccc(O)cc2o1; experiment: as above; format: biochemical, human; conditions: other: UGT1A10mutant (H210M), 7-hydroxyl glucuronidation, one experiment; pH 7.4; 37.0 °C
Description: as §6, §7, §2, §3

[16] = substrate: O=c1oc2cc(O)ccc2cc1-c1ccc(F)cc1; experiment: as above; format: biochemical, human; conditions: other: UGT1A10mutant (H210M), 7-hydroxyl glucuronidation, one experiment; pH 7.4; 37.0 °C
Description: as §6, §7, §2, §3

[17] = substrate: O=c1oc2cc(O)ccc2cc1-c1ccc(O)cc1; experiment: as above; format: biochemical, human; conditions: other: UGT1A10mutant (H210M), 7-hydroxyl glucuronidation, one experiment; pH 7.4; 37.0 °C
Description: as §6, §7, §2, §3

[18] = substrate: O=c1oc2cc(O)ccc2cc1-n1cncn1; experiment: as above; format: biochemical, human; conditions: other: UGT1A10mutant (H210M), 7-hydroxyl glucuronidation, one experiment; pH 7.4; 37.0 °C
Description: as §6, §7, §2, §3

## O=c1ccc2ccc(O)cc2o1 [7-hydroxycoumarin, reference compound]
Human UGTs; control substrates
  UGT(s) that primarily glucuronidate the substrate: UGT1A6
[1]
  Glucuronidation rate, HLM compared with HIM (in words): much higher rates by HLM than by HIM

## CN(C)c1ccc(-c2cc3ccc(O)cc3oc2=O)cc1 [Compound 4, 7-Hydroxy-3-(4-(dimethylamino)phenyl)-2H-chromen-2-one]
Human UGTs
  Selectivity among human UGTs: selective for UGT1A10
[2]
  Glucuronidation by HLM (in words): not glucuronidated by HLM at all, or only at very low rates; also recorded: very low or below the detection limit
[3]
  Amax: 370 nm
  ε abs: 22900 M⁻¹ cm⁻¹
[4]
  Fluorescence EMmax: 457 nm

## Cc1ccc(-c2cc3ccc(O)cc3oc2=O)cc1 [Compound 5, 7-Hydroxy-3-(p-tolyl)-2H-chromen-2-one]
Human UGTs
  Selectivity among human UGTs: selective for UGT1A10
[3]
  Amax: 347 nm
  ε abs: 19500 M⁻¹ cm⁻¹
[4]
  Fluorescence EMmax: 462 nm
  Fluorescence EXmax: 358 nm

B1: UGT1A10 (Homo sapiens) (protein)
chain: GKLLVVPMDGSHWFTMQSVVEKLILRGHEVVVVMPEVSWQLERSLNCTVKTYSTSYTLEDQNREFMVFAHAQWKAQAQSIFSLLMSSSSGFLDLFFSHCRSLFNDRKLVEYLKESSFDAVFLDPFDTCGLIVAKYFSLPSVVFTRGIFCHHLEEGAQCPAPLSYVPNDLLGFSDAMTFKERVWNHIVHLEDHLFCQYLFRNALEIASEILQTPVTAYDLYSHTSIWLLRTDFVLDYPKPVMPNMIFIGGINCHQGKPLPMEFEAYINASGEHGIVVFSLGSMVSEIPEKKAMAIADALGKIPQTVLWRYTGTRPSNLANNTILVKWLPQNDLLGHPMTRAFITHAGSHGVYESICNGVPMVMMPLFGDQMDNAKRMETKGAGVTLNVLEMTSEDLENALKAVINDKSYKENIMRLSSLHKDRPVEPLDLAVFWVEFVMRHKGAPHLRPAAHDLTWYQYHSLDVIGFLLAVVLTVAFITFKCCAYGYRKCLGKKGRVKKAHKSKTH
notes: His-tag; made in house; host or cells: baculovirus-infected insect cells
[5]
  Km: 2.8 (0–6.5) μM
  Vmax: 0.0153 µmol/min/mg
  Vmax/Km: 5500 µL/min/mg
[6]
  Km: 8.3 (0–31.4) μM
  Vmax: 0.0223 µmol/min/mg
  Vmax/Km: 2700 µL/min/mg
[7]
  Km: 2.8 (0.7–4.9) μM
  Vmax: 0.0162 µmol/min/mg
  Vmax/Km: 5800 µL/min/mg
[8]
  Km: 14 (10.7–17.3) μM
  Vmax: 0.0151 µmol/min/mg
  Vmax/Km: 1100 µL/min/mg
[9]
  Km: 10.7 (1.7–19.6) μM
  Vmax: 0.031 µmol/min/mg
  Vmax/Km: 2900 µL/min/mg
[10]
  Km: 2.2 (1–3.4) μM
  Vmax: 0.0059 µmol/min/mg
  Vmax/Km: 2700 µL/min/mg
[11]
  Km: 7.0 (3.1–11) μM
  Vmax: 0.0053 µmol/min/mg
  Vmax/Km: 760 µL/min/mg

B2: UGT1A10 mutant 1A10-H210M (Homo sapiens; H210M) (protein)
chain: B1 chain with H185M
notes: His-tag; made in house; host or cells: baculovirus-infected SF9 insect cells
[12]
  Km: 4.7 (1.5–7.9) μM
  Vmax: 0.0065 µmol/min/mg
  Vmax/Km: 1400 µL/min/mg
[13]
  Km: 3.8 (0.97–6.7) μM
  Vmax: 0.0095 µmol/min/mg
  Vmax/Km: 2500 µL/min/mg
[14]
  Km: 4.6 (1.5–7.8) μM
  Vmax: 0.0059 µmol/min/mg
  Vmax/Km: 1300 µL/min/mg
[15]
  Km: 32.9 (0–102) μM
  Vmax: 0.0117 µmol/min/mg
  Vmax/Km: 360 µL/min/mg
[16]
  Km: 3.5 (0–9.3) μM
  Vmax: 0.0087 µmol/min/mg
  Vmax/Km: 2500 µL/min/mg
[17]
  Km: 7.8 (5.5–10.2) μM
  Vmax: 0.0063 µmol/min/mg
  Vmax/Km: 810 µL/min/mg
[18]
  Km: 26.8 (0–80) μM
  Vmax: 0.0063 µmol/min/mg
  Vmax/Km: 240 µL/min/mg
